Key:
CD34+CB cells = test: CFU assay, CD34+ cord blood cells; type: cell-based; conditions: treated in vitro, vs IgG1 control
Procedure: FIG. 12. Recombinant EGFL7 stimulation leads to expansion of primary CFUs and secondary CFUs in human hematopoietic stem and progenitor cells (HSPCs). […] The number of colonies with more than 50 cells was counted under a light microscope. Right: Cells from the first round of CFU assays were harvested, rinsed with SFEM, and pooled. 5000 cells were then mixed with methylcellulose medium in the absence or presence of 0.25 μM recombinant human EGFL7 and plated onto 2 cm dishes for 10 days. The number of colonies with more than 50 cells was counted under a light microscope. […]
[…] After 10 days of culture, colonies were scored.
To assess the toxicity of Parsatuzumab on normal hematopoiesis, wild type (C57Bl/6J) mice were treated with Parsatuzumab (n=4) and IgG1 control (n=4) with the highest dose previously tested at 50 mpk twice a week for two weeks. Parsatuzumab targets both human and mouse EGFL7 protein. After two weeks of treatment, blood, spleen and BM were harvested and full phenotypic characterization was performed to assess toxicity. […] Full immunophenotypic examination of BM populations was also performed (data not shown due to space constraints). […] To functionally test the effect of Parsatuzumab on normal HSPCs, competitive repopulation BM transplantation (BMT) assays and CFU assays were performed. […]

EOL-1 cells = test: EOL-1 AML xenograft in NSG mice; conditions: for overall survival: 50 mg/kg intraperitoneal, three times per week, 4 mice per group, vs IgG1 control
Procedure: (FIG. 25A) Overall survival of transplanted NSG mice which were treated with Parsatuzumab or IgG1 control (4 mice per group; dosage 50 mg/kg intraperitoneal injected). […] (FIG. 25B) HES-1 levels were measured after in vivo treatment with Parsatuzumab and IgG1 control, GAPDH was used as loading control.
All studies using animals were carried out in accordance with the OSU institutional guidelines for animal care and under protocols approved by the OSU Institutional Animal Care and Use Committee. All mice used in the experiments were between 8 and 10 weeks of age. Female NOD-scid IL2Rg^null (NSG) mice were transplanted with 10×10^6 EOL-1 cells. Two weeks post-transplant mice were treated with Parsatuzumab or IgG1 control (4 mice per group; dosage 50 mg/kg intraperitoneal), three times per week. Mice were monitored closely for clinical signs of leukemia such as weight loss and hind limb paralysis.
Two-tailed student's t tests were performed using GraphPad Prism version 7 (Graphpad Software, San Diego, Calif.) to analyze in vitro and in vivo experiments unless otherwise noted. P values <0.05 were considered significant. Overall survival for the mouse AML xeonograft model was calculated using the Kaplan-Meier method, and survival curves were compared by the log-rank test.
Briefly, 10×10^6 EOL-1 cells were transplanted into non-conditioned NSG recipient mice. Two weeks post-transplantation, mice were treated with 50 mpk of anti-EGFL7 or IgG1 control antibody three times per week (FIG. 25A).

AML cell lines = test: Differentiation (CD11b expression) in AML cell lines; type: cell-based, human; conditions: vs IgG-treated controls
Procedure: FIG. 10. Induced differentiation in AML cell lines treated with anti-EGFL7. Differentiation analysis was evaluated by CD11b expression. CD11b is depicted as the ratio of the CD11b expression value in the @E7 treated samples to CD11b expression value of the IgG-treated controls. * indicates P<0.05, ** indicates P<0.01.
For the evaluation of apoptosis, cells were stained with Annexin V and 7-AAD as previously described^16, 21 For the evaluation of cell proliferation, AML cell lines were incubated with BrdU, fixed, permeabilized and stained with APC-conjugated anti-BrdU antibody, according to the instructions of the manufacturer (BD Biosciences) and as previously described^16, 21 The proliferating fraction of the cells (i.e., the BrdU positive cells) was evaluated with flow cytometry (LSRII, BD Biosciences). For cell differentiation analysis, cells were stained with an anti-CD11B antibody (BD Biosciences) and analyzed by flow cytometry.

human AML blasts = test: CFU assay, blasts of AML patients; type: cell-based
Procedure: FIG. 4A-4E. EGFL7 stimulates the proliferation of human and mouse acute myeloid leukemia (AML cells). Bone marrow cells from wild-type (WT) mice (FIG. 4A), and Mll^PTD/WTFlt3^ITD/WT mice (FIG. 4B), were treated without (Unstim) or with 0.1, 0.25, or 0.5 μM recombinant mouse Egfl7 (rEgfl7) in IMDM medium+2% bovine serum albumin (BSA) for 24, 48, 72 and 96 hours. At the indicated time points, the number of viable cells was determined by trypan blue dye exclusion assay. Each condition was repeated in triplicate. NS indicates not significant, * indicates P<0.05, ** indicates P<0.01. (FIG. 4C). […] The colonies with more than 50 cells were enumerated using a light microscope. Each condition for each patient (n=4) was plated in triplicate, ** indicates P<0.01, *** indicates P<0.001. (FIG. 4D) Blasts from AML patients (n=4) were cultured in SFEM+2% BSA in the absence or presence of 0.25 μM rEGFL7 for 20 min. Total proteins were extracted for immunoblotting of phosphorylated AKT-S473 (pAKT-S473), total AKT and GAPDH. (FIG. 4E) AML blasts from Mll^PTD/WTFlt3^ITD/WT mice (n=3) were cultured in IMDM medium+2% BSA in the absence or presence of […] recombinant rEgfl7 for 20 min. […]
FIG. 5. […] The number of colonies with more than 50 cells was counted under a light microscope. […]
Colonies with more than 50 cells were counted using a light microscope. […]

B1: Parsatuzumab: Anti-human EGFL7 therapeutic antibody (Parsatuzumab) obtained from Creative Biolabs; blocking monoclonal antibody (antibody, chains of the INN, looked up, V domains shown)
VH: EVQLVESGGGLVQPGGSLRLSCAASGYTFIDYYMNWVRQAPGKGLEWVGDINLDNSGTHYNQKFKGRFTISRDKSKNTAYLQMNSLRAEDTAVYYCAREGVYHDYDDYAMDYWGQGTLVTVSS
VL: DIQMTQSPSSLSASVGDRVTITCRTSQSLVHINAITYLHWYQQKPGKAPKLLIYRVSNRFSGVPSRFSGSGSGTDFTLTISSLQPEDFATYYCGQSTHVPLTFGQGTKVEIK
- numbers and types of colonies, CB CD34+ cells (CD34+CB cells): no significant changes in the numbers or types of colonies
- overall survival (EOL-1 cells): significant longer overall survival
- overall survival (EOL-1 cells; listed as anti-EGFL7): prolonged survival
- HES1 protein (western blots) after in vivo treatment (EOL-1 cells; 50 mpk three times per week, vs IgG1 controls): increased levels of HES1 protein
- differentiation (CD11b expression) (AML cell lines): increased differentiation
- cell growth (numbers of formed colonies in CFU assays) (human AML blasts; 2, 10, 50, or 250 μg/ml for 2 h, then 10 days, vs normal IgG): significant decreases in cell growth
- blast growth (number of CFUs) (human AML blasts; increasing concentrations for 4 hours, then 10 days in methylcellulose, n=4, vs IGg1 control): dose dependent decrease in blast growth

— patent US11702469B2, “Recombinant EGFL7, EGFL7 antibodies, and uses thereof” (Ohio State Innovation Foundation, priority 2017, dated 2023)
